Experimental data published in paper PMC10397247.

How the values were obtained:
Test in all cases: two-hybrid library CCNG1;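 further: natural log of median RNA to DNA barcode read ratio; higher means stronger binding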
4H619-bA = molecular target: T1, 4H619-bA
T1 chain: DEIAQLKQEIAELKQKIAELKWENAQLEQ

4H850-bA = molecular target: T2, 4H850-bA
T2 chain: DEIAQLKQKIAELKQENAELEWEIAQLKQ

4H906-bA = molecular target: T3, 4H906-bA
T3 chain: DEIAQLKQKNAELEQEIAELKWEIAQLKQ

4H457-bN = molecular target: T4, 4H457-bN
T4 chain: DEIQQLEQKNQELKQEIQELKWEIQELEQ

4H575-bN = molecular target: T5, 4H575-bN
T5 chain: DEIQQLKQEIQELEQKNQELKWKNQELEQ

4H683-bN = molecular target: T6, 4H683-bN
T6 chain: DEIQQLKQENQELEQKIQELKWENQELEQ

4H754-bN = molecular target: T7, 4H754-bN
T7 chain: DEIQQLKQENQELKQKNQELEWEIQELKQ

4H780-bN = molecular target: T8, 4H780-bN
T8 chain: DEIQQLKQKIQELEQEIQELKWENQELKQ

4H797-bN = molecular target: T9, 4H797-bN
T9 chain: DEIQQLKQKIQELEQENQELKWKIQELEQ

4H855-bN = molecular target: T10, 4H855-bN
T10 chain: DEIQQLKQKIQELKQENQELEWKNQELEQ

4H918-bN = molecular target: T11, 4H918-bN
T11 chain: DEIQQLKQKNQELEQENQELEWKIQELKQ

4H953-bN = molecular target: T12, 4H953-bN
T12 chain: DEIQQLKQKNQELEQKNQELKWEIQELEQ

4H968-bN = molecular target: T13, 4H968-bN
T13 chain: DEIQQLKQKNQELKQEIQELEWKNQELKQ

4H683-bA = molecular target: T14, 4H683-bA
T14 chain: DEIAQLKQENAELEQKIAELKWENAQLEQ

4H754-bA = molecular target: T15, 4H754-bA
T15 chain: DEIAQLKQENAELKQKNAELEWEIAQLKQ

4H780-bA = molecular target: T16, 4H780-bA
T16 chain: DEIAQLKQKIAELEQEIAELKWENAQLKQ

4H797-bA = molecular target: T17, 4H797-bA
T17 chain: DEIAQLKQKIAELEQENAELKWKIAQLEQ

4H855-bA = molecular target: T18, 4H855-bA
T18 chain: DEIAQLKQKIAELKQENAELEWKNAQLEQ

4H918-bA = molecular target: T19, 4H918-bA
T19 chain: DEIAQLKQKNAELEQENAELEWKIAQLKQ

4H953-bA = molecular target: T20, 4H953-bA
T20 chain: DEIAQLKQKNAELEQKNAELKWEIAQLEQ

4H968-bA = molecular target: T21, 4H968-bA
T21 chain: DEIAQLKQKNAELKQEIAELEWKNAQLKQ

O8-bA = molecular target: T22, O8-bA
T22 chain: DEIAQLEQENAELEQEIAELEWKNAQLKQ

4H591-bN = molecular target: T23, 4H591-bN
T23 chain: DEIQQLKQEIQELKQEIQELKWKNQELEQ

4H626-bN = molecular target: T24, 4H626-bN
T24 chain: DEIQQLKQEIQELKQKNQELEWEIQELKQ

4H906-bN = molecular target: T25, 4H906-bN
T25 chain: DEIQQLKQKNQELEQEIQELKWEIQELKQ

**Q.** DEIAQLKQEIAELKQKIAELKWENAQLEQ [4H619-bA] was tested. Which interaction score (4H619-bA) did it give?
**A.** -0.211

**Q.** What about the interaction score (4H850-bA) of the same binder?
**A.** -0.446

**Q.** What about the interaction score (4H906-bA) of the same binder?
**A.** -1.09

**Q.** Which results are given for DEIQQLEQKNQELKQEIQELKWEIQELEQ [4H457-bN]?
**A.** interaction score (4H457-bN): -1.6; interaction score (4H575-bN): -0.989; interaction score (4H683-bN): -0.914; interaction score (4H754-bN): -0.487; interaction score (4H780-bN): -1.08; interaction score (4H797-bN): -1.31; interaction score (4H855-bN): -2.15; interaction score (4H918-bN): -1.24; interaction score (4H953-bN): -0.785; interaction score (4H968-bN): -1.86

**Q.** DEIAQLKQENAELEQKIAELKWENAQLEQ [4H683-bA] was tested. Which interaction score (4H683-bA) did it give?
**A.** -0.189

**Q.** And the interaction score (4H754-bA)?
**A.** -0.665

**Q.** And the interaction score (4H780-bA)?
**A.** -1.43

**Q.** And the interaction score (4H797-bA)?
**A.** -1.06

**Q.** What about the interaction score (4H855-bA) of the same binder?
**A.** -0.474

**Q.** And the interaction score (4H918-bA)?
**A.** -0.784

**Q.** What about the interaction score (4H953-bA) of the same binder?
**A.** -1.67

**Q.** And the interaction score (4H968-bA)?
**A.** 2.25

**Q.** What about the interaction score (O8-bA) of the same binder?
**A.** -2.64

**Q.** Which interaction score (4H591-bN) does the source give for DEIQQLKQEIQELKQEIQELKWKNQELEQ [4H591-bN] here?
**A.** 1.27

**Q.** And the interaction score (4H626-bN)?
**A.** -0.933

**Q.** And the interaction score (4H906-bN)?
**A.** -1.13

**Q.** DEIQQLKQEIQELKQKNQELEWEIQELKQ [4H626-bN] was tested. Which interaction score (4H626-bN) did it give?
**A.** 0.832

**Q.** And the interaction score (4H906-bN)?
**A.** -0.523
